Source: patent US20240207383

Target: ComPC1-CRM197 fusion protein

B1: PglS oligosaccharyltransferase (protein)
chain: MNSIFKKIKNYTIVSGVFFLGSAFIIPNTSNLSSTLYKELIAVLGLLILLTVKSFDYKKILIPKNFYWFLFVIFIIFIQLIVGEIYFFQDFFFSISFLVILFLSFLLGFNERLNGDDLIVKKIAWIFIIVVQISFLIAINQKIEIVQNFFLFSSSYNGRSTANLGQPNQFSTLILITLFLLCYLREKNSLNNMVFNILSFCLIFANVMTQSRSAWISVILISLLYLLKFQKKIELRRVIFFNIVFWTLVYCVPLLFNLIFFQKNSYSTFDRLTMGSSRFEIWPQLLKAVFHKPFIGYGWGQTGVAQLETINKSSTKGEWFTYSHNLFLDLMLWNGFFIGLIISILILCFLIELYSSIKNKSDLFLFFCVVAFFVHCLLEYPFAYTYFLIPVGFLCGYISTQNIKNSISYFNLSKRKLTLFLGCCWLGYVAFWVEVLDISKKNEIYARQFLFSNHVKFYNIENYILDGFSKQLDFQYLDYCELKDKYQLLDFKKVAYRYPNASIVYKYYSISAEMKMDQKSANQIIRAYSVIKNQKIIKPKLKFCSIEY
  glycosylation with CPS8, Western blot of periplasmic extracts (anti-His): the ComPC1-CRM197 was also glycosylated by PglS
